Results on 25 molecules are retold here after US20240109965A1 (Ablynx, published 2024).

Changes are numbered by the printed parent chain.

Test [1] deals with T1, cynomolgus TCRαβ-zipper protein (cynomolgus).
T1 construct: also called cyTCR(AEA41865)-zipper; CynoTCRαβ-zipper
T1 TCR alpha: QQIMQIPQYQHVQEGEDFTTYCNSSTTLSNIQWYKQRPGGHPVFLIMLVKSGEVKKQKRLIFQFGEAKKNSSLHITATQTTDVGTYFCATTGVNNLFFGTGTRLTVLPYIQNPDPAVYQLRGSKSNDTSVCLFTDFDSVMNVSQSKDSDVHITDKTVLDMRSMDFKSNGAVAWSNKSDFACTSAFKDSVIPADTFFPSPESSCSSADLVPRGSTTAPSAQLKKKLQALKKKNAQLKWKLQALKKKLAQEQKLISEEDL
T1 TCR beta: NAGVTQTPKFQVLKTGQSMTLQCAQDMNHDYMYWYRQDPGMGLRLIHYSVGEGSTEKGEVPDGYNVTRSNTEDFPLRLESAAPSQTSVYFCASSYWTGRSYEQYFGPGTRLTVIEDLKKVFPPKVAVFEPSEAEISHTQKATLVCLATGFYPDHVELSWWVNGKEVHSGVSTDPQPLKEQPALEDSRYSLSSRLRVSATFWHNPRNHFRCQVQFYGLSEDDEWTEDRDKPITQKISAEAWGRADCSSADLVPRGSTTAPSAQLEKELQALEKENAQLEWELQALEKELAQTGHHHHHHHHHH
The test is described as follows: SPR ProteOn XPR36, multi-cycle kinetics, TCR-zipper immobilized.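 Note: monovalent His-tagged ISVD constructs flowed at six concentrations over amine-coupled TCR on a GLC chip, 120 s association, 600 s dissociation, double-referenced, fitted to 1:1 Langmuir model.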
Protocol: Binding of purified, monovalent TCE-FLAG3-HIS6 and TCE-HIS6 ISVD constructs to human TCRαβ-zipper protein (huTCR(2XN9)-zipper, in-house produced) and cynomolgus TCRαβ-zipper protein (cyTCR(AEA41865)-zipper, in-house produced) was probed by Surface Plasmon Resonance (SPR) (Bio-rad Laboratories, Inc., ProteOn XPR36). Both targets were immobilized on a GLC sensor chip (short matrix, normal capacity) using standard amine coupling chemistry. ISVD constructs were injected at 6 different concentrations in a multi-cycle kinetics (MCK) experiment. Each concentration of the ISVDs was injected for 120s and dissociation was assessed during 600s.
Data was double referenced by subtracting a reference analyte lane and a blank buffer injection. Affinity constants (ka, kd and KD) were calculated applying the Langmuir 1:1 interaction model using the ProteOn Manager 3.1.0 (Bio-rad Laboratories, Inc., Version 3.1.0.6).

Test [2] addresses T1, cynomolgus TCRαβ-zipper protein. The test is described as follows: SPR Biacore 8K+, multi-cycle kinetics, TCR-zipper immobilized. A general note: In SPR one partner is held on a chip, and binding of the other changes the refractive index at the surface.
Protocol: Binding of purified TCE-CD123-ALB and CD123-TCE-ALB ISVD constructs to human TCRαβ-zipper protein (huTCR(2XN9)-zipper, in-house produced) and cynomolgus TCRαβ-zipper protein (cyTCR(AEA41865)-zipper, in-house produced) was probed by Surface Plasmon Resonance (SPR) (Cytiva, Biacore 8K+). Both targets were immobilized on a CM5 sensor chip using standard amine coupling chemistry. […] Each concentration of the ISVDs was injected for 180s and dissociation was assessed during 600s.
Data was double referenced by subtracting a reference flow cell (FC) and a blank buffer injection. Affinity constants (ka, kd and KD) were calculated applying the Langmuir 1:1 interaction model using the Biacore Insight Evaluation Software (Cytiva, Version 3.0.12.15655).
Test [3] has as its target human T cell receptor (TCRαβ) on primary human T cells (human). The test is described as follows: cell-based or functional assay.

By Kd is commonly meant the constant that tells how readily two partners part at equilibrium. A word on the koff: it is a measure of how fast the partners let go of each other. By kon is commonly meant the rate constant with which the complex forms. Lower therefore signals slow association.

Sequence of human T cell receptor (TCRαβ) on primary human T cells (human) (P0DTU3 134-275, chain 1 of 2): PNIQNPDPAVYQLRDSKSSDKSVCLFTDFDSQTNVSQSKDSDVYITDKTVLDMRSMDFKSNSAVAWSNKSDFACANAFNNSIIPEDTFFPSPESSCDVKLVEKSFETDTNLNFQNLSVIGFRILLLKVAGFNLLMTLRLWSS
Sequence of human T cell receptor (TCRαβ) on primary human T cells (human) (P01850 other isoform, or with tags, fused parts or gaps, chain 2 of 2, further chain): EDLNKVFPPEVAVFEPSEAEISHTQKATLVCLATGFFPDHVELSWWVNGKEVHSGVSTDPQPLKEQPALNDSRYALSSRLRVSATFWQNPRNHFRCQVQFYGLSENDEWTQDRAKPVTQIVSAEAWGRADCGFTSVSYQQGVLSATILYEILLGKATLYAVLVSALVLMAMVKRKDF

B1: T017000700 (VHH)
VHH: EVQLVESGGGVVQPGGSLRLSCVASGYVHKINFYGWYRQAPGKEREKVAHISIGDQTDYADSAKGRFTISRDESKNTVYLQMNSLRPEDTAAYYCRALSRIWPYDYWGQGTLVTVSS
As for B1, in test [1], the Kd is 8 nM. This lies in the single-digit nanomolar range.

B2: T017000978 (VHH)
VHH: B1 VHH with D61E, W102Y
notes: also called T01700978
Take B2: in test [1], the “KD ratio cy/huTCR” value worked out at 4; the “KD ratio vs ref” value worked out at 2.5; the affinity, expressed as Kd, was 20 nM; the off-rate (koff) is 0.0033 s⁻¹. Further, the kon in test [1] was 170000 M⁻¹ s⁻¹.

B3: T017000940 (VHH)
VHH: B1 VHH with D61R
As for B3, in test [1], the “KD ratio cy/huTCR” value came to 3.2, the “KD ratio vs ref” value stood at 0.8, binding was put at a Kd of 6.1 nM and the koff stood at 0.0019 s⁻¹. The molecule also returned a kon in test [1] of 320000 M⁻¹ s⁻¹.

B4: T017001001 (VHH)
VHH: B1 VHH with D61E, W102T
Regarding B4, in test [1], the “KD ratio cy/huTCR” value was determined as 3.1, the “KD ratio vs ref” value was determined as 133, binding was put at a Kd of 1100 nM and the koff was 0.034 s⁻¹. The molecule also had a kon in test [1] of 32000 M⁻¹ s⁻¹.

B5: T017000938 (VHH)
VHH: B1 VHH with D61P
With B5, in test [1], the “KD ratio cy/huTCR” value turned out to be 3.2, the “KD ratio vs ref” value worked out at 0.8, the Kd is 6.7 nM and the koff was found to be 0.0019 s⁻¹. The molecule also had an on-rate (kon) in test [1] of 280000 M⁻¹ s⁻¹.

B6: T017000944 (VHH)
VHH: B1 VHH with D61V
Consider B6, for which, in test [1], the “KD ratio cy/huTCR” value was 3; the “KD ratio vs ref” value stood at 0.9; the affinity, expressed as Kd, was 7 nM; the koff was 0.0019 s⁻¹. Also, in test [1], the association rate constant (kon) was 280000 M⁻¹ s⁻¹.

B7: T017000977 (VHH)
VHH: B1 VHH with D61V, W102Y
Consider B7, for which, in test [1], the “KD ratio cy/huTCR” value was 4.3, the “KD ratio vs ref” value came to 2.4, the Kd stood at 19 nM and the koff stood at 0.0035 s⁻¹. In addition, the kon in test [1] was 180000 M⁻¹ s⁻¹.

B8: T017000949 (VHH)
VHH: B1 VHH with D61Q
Turning to B8, in test [1], the “KD ratio cy/huTCR” value was 3.2, the “KD ratio vs ref” value worked out at 0.8, the Kd was 6.8 nM and the koff amounted to 0.0019 s⁻¹. Moreover, in test [1], the association rate constant (kon) turned out to be 280000 M⁻¹ s⁻¹.

B9: T017000951 (VHH)
VHH: B1 VHH with D61S
As for B9, in test [1], the “KD ratio cy/huTCR” value was 3, the “KD ratio vs ref” value came to 0.9, the Kd stood at 7.4 nM and the off-rate constant (koff) amounted to 0.002 s⁻¹. This molecule had a kon in test [1] of 260000 M⁻¹ s⁻¹.

B10: T017000946 (VHH)
VHH: B1 VHH with D61A
Turning to B10, in test [1], the “KD ratio cy/huTCR” value came to 3.1, the “KD ratio vs ref” value worked out at 0.9, the Kd is 7 nM and the koff turned out to be 0.0019 s⁻¹. Also, the kon in test [1] turned out to be 270000 M⁻¹ s⁻¹.

B11: T017000979 (VHH)
VHH: B1 VHH with D61A, W102Y
For the molecule B11, in test [1], the “KD ratio cy/huTCR” value is 3.8, the “KD ratio vs ref” value was 2.3, the Kd turned out to be 19 nM and the koff was determined as 0.0035 s⁻¹. Moreover, in test [1], the on-rate constant (kon) was 180000 M⁻¹ s⁻¹.

B12: T017000980 (VHH)
VHH: B1 VHH with D61Q, W102Y
With B12, in test [1], the “KD ratio cy/huTCR” value was 4, the “KD ratio vs ref” value was 2.1, the Kd was 17 nM and the koff was 0.0034 s⁻¹. Further, the kon in test [1] worked out at 210000 M⁻¹ s⁻¹.

B13: T017000967 (VHH)
VHH: B1 VHH with W102Y
Take B13: in test [1], the “KD ratio cy/huTCR” value worked out at 3.1, the “KD ratio vs ref” value was 1.7, binding was characterised by a dissociation constant (Kd) of 14 nM and the koff worked out at 0.0028 s⁻¹. In test [1], this molecule gave a kon of 200000 M⁻¹ s⁻¹.

B14: T017000999 (VHH)
VHH: B1 VHH with D61E, W102S
notes: also called T01700999
For the molecule B14, in test [1], the “KD ratio cy/huTCR” value was 2.5, the “KD ratio vs ref” value is 43, the dissociation constant (Kd) is 350 nM and the koff was determined as 0.018 s⁻¹. Further, the kon in test [1] was determined as 51000 M⁻¹ s⁻¹.

B15: T017000995 (VHH)
VHH: B1 VHH with D61E, W102Q
For the molecule B15, in test [1], the “KD ratio cy/huTCR” value turned out to be 2, the “KD ratio vs ref” value was 246, binding was characterised by a dissociation constant (Kd) of 2000 nM and the off-rate constant (koff) is 0.093 s⁻¹. Further, in test [1], the kon came to 47000 M⁻¹ s⁻¹.

B16: T017000981 (VHH)
VHH: B1 VHH with D61S, W102Y
Consider B16, for which, in test [1], the “KD ratio cy/huTCR” value turned out to be 3.8, the “KD ratio vs ref” value was determined as 2.1, the Kd stood at 17 nM and the koff is 0.0035 s⁻¹. Moreover, in test [1], the kon is 210000 M⁻¹ s⁻¹.

B17: T017000945 (VHH)
VHH: B1 VHH with D61E
As to B17, in test [1], the “KD ratio cy/huTCR” value amounted to 3.1, the “KD ratio vs ref” value amounted to 0.9, the Kd stood at 7.1 nM and the koff turned out to be 0.0018 s⁻¹. In test [1], this molecule gave a kon of 260000 M⁻¹ s⁻¹.

B18: T017000976 (VHH)
VHH: B1 VHH with D61R, W102Y
For B18, in test [1], the “KD ratio cy/huTCR” value turned out to be 3.9, the “KD ratio vs ref” value was determined as 1.9, the equilibrium dissociation constant (Kd) was 15 nM and the koff was 0.0035 s⁻¹. For the same molecule, the kon in test [1] is 230000 M⁻¹ s⁻¹.

B19: T017001022 (bispecific antibody)
chain: DVQLVESGGGVVQPGGSLRLSCVASGYVHKINFYGWYRQAPGKEREKVAHISIGDQTDYADSAKGRFTISRDESKNTVYLQMNSLRPEDTAAYYCRALSRIWPYDYWGQGTLVTVSSGGGGSGGGSEVQLVESGGGVVQPGGSLRLSCAASGTTLDYYVIGWFRQAPGKEREGVSCISSSDGYTYYADSVKGRFTISRDNAKNTVYLQMNSLRPEDTALYYCATDPYYSSCHPFFADYEYDYWGQGTLVTVSSGGGGSGGGSEVQLVESGGGVVQPGGSLRLSCAASGFTFRSFGMSWVRQAPGKGPEWVSSISGSGSDTLYADSVKGRFTISRDNSKNTLYLQMNSLRPEDTALYYCTIGGSLSRSSQGTLVTVSS
Take B19: the affinity in test [2], expressed as Kd, was 15 nM. Further, in test [3], the “EC50 (M), human T cell mediated MOLM-13 cell killing, Donor #1” value (from here on “EC50 (M) … Donor #1”) is 1.5e-11 M and the “EC50 (M), human T cell mediated MOLM-13 cell killing, Donor #2” value (from here on “EC50 (M) … Donor #2”) is 1.4e-10 M.

B20: T017001023 (bispecific antibody)
chain: B19 chain with D61E, W102Y
Consider B20, for which binding in test [2] was characterised by a dissociation constant (Kd) of 37 nM. For the same molecule, in test [3], the “EC50 (M) … Donor #1” value was determined as 2.4e-11 M and the “EC50 (M) … Donor #2” value came out at 1.1e-10 M.

B21: T017001024 (bispecific antibody)
chain: B19 chain with D61E, W102T
B21: in test [2], binding was put at a Kd of 2400 nM. In addition, the “EC50 (M) … Donor #2” value in test [3] turned out to be 9.8e-10 M.

B22: T017001026 (bispecific antibody)
chain: B19 chain with D61E, W102Q
B22 gave a Kd in test [2] of 3900 nM. In test [3], the “EC50 (M) … Donor #1” value was found to be 3.4e-10 M and the “EC50 (M) … Donor #2” value amounted to 4.4e-09 M.

B23: T017001025 (bispecific antibody)
chain: B19 chain with D61E, W102S
Molecule B23 gave a Kd in test [2] of 780 nM. In test [3], the “EC50 (M) … Donor #1” value amounted to 6.6e-11 M and the “EC50 (M) … Donor #2” value is 3.4e-10 M.

B24: T017001029 (bispecific antibody)
chain: EVQLVESGGGVVQPGGSLRLSCAASGTTLDYYVIGWFRQAPGKEREGVSCISSSDGYTYYADSVKGRFTISRDNAKNTVYLQMNSLRPEDTALYYCATDPYYSSCHPFFADYEYDYWGQGTLVTVSSGGGGSGGGSEVQLVESGGGVVQPGGSLRLSCVASGYVHKINFYGWYRQAPGKEREKVAHISIGDQTDYAESAKGRFTISRDESKNTVYLQMNSLRPEDTAAYYCRALSRITPYDYWGQGTLVTVSSGGGGSGGGSEVQLVESGGGVVQPGGSLRLSCAASGFTFRSFGMSWVRQAPGKGPEWVSSISGSGSDTLYADSVKGRFTISRDNSKNTLYLQMNSLRPEDTALYYCTIGGSLSRSSQGTLVTVSS
For B24, the Kd in test [2] came out at 9100 nM.

B25: T017001031 (bispecific antibody)
chain: B24 chain with T238Q
Regarding B25, the Kd in test [2] stood at 18000 nM.
